Common to all, as to test: dot blot, antigen dilution series on nitrocellulose
Experiment [1] concerns the target Aβ(1-42) oligomers B (human amyloid β(1-42) oligomers having molecular weights of 38 kDa and 48 kDa; preparation of example 6b) (human) (UniProt P05067).
In experiment [2] the target is HFIP-treated Aβ(1-42) monomer of example 1a (human amyloid β(1-42) protein) (human).
Experiment [3] has as its target Aβ(1-42) fibril preparation of example 27 (human) (UniProt P05067).

Aβ(1-42) oligomers B (human amyloid β(1-42) oligomers having molecular weights of 38 kDa and 48 kDa; preparation of example 6b) (human), sequence (P05067 672-713 limits assumed): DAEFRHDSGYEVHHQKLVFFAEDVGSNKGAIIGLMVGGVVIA
Aβ(1-42) fibril preparation of example 27 (human), sequence (P05067 672-713 limits assumed): as above
HFIP-treated Aβ(1-42) monomer of example 1a (human amyloid β(1-42) protein) (human), sequence (peptide, as listed by the source): as the sequence (P05067 672-713 limits assumed) above

Regarding monoclonal antibody 6E10 (Signet), the minimum amount of antigen visible (detection limit) in experiment [1] turned out to be 0.1 pmol; in experiment [2], 0.1 pmol; in experiment [3], 1 pmol.

The record behind these values is patent publication US20070098721A1.
